This data set in a line: yeast display, Sf9 membrane polyspecificity reagent, FACS + sequencing; frameworks hold sequencing errors. Put shortly:
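Genes from sorted yeast were amplified by colony PCR, read by MiSeq 2 × 250 sequencing and filtered on CDR length. These cells carried a synthetic nanobody library in Saccharomyces cerevisiae BJ5465 and were sorted by FACS into low and high (top ~1%) gates on anti-HA and streptavidin fluorescence. Polyreactivity is labelled according to the gate of origin.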
With “QVQLVESGGGLVQAGGSLRLSCAASGSTFFLYAMGWYRQAPGKERELVAAITYTDGDTYYADSVKGRFTISRDNAKNTVYLQMNSLKPEDTAVYYCAAYRFPYFPSIAYYYTYYSWGQGTQVTVSS”, the “polyreactivity (PSR sort gate)” value is listed as “low polyreactivity”.
The entry for “QVQLVESGGGLVQAGGSLRLSCAASGSTFFRNAMGWYRQAPGKERELVASITSGGNTKYADSVKGRFTISRDNAKNTVYLQMNSLKPEDTAVYYCAALFYHFARYSRLYNYWGQGTQVTVSS” is “low polyreactivity”; for “QVQLVESGGGLVQAGGSLRLSCAASGSTFFRYAMGWNRQAPGKERELVATITGGGRTNYADSVKGRFTISRDNAKNTVYLQMNTLKPEDTAVYYCAAYGYVWALRLRYVTYYYWGQGTQVTVSS” it is “high polyreactivity”.
Consider “QVQLVESGGGLVQAGGSLRLSCAASGSTFFSYAMGWYRQAPGKDRELVAAISNSGGTTYYADSVKGRFTISRDNAKNTVYLQMNSLKPEDTAVYYSATRARYVGGYKYNYWGQGTQVTVSS”, for which the “polyreactivity (PSR sort gate)” value was “high polyreactivity”.
In the case of “QVQLVESGGGLVQAGGSLRLSCAASGSTFFSYAMGWYRQAPGKERELVAAISNTGGTHYADSVKGRFTISRDNAKNTVYLQMNSLKPEDTAVFYCAADGWYYIGPFSVYSSFTSDYWGQGTQLTVSS”, the “polyreactivity (PSR sort gate)” value is recorded as “low polyreactivity”.
The entry for “QVQLVESGGGLVQAGGSLRLSCAASGSTFFTYAMGWYRQAPGKERELVAAITRGGSSYYADSVKGRFTISRDNAKNTVYLLMNSLKPEDTAVYDCAARVSYRYGYWGQGTQVTVSS” is “high polyreactivity”; for “QVQLVESGGGLVQAGGSLRLSCAASGSTFFVNTMGWYRQAPGKERELVAAIRRRGGSTYYADSVKGRFTISRDNAKNTVYLQMNSLIPEDTAVYYCAADSYSRYYYWGQGTQVTVSS” it is “high polyreactivity”.
For “QVQLVESGGGLVQAGGSLRLSCAASGSTFFVYAMGWYRQAPGKERELVATISSAASTYYADSVKGRFTISRDNAKNTVYLQMNSLKPEDTAVYYCAAGYFIRTRSRYRYDYWGQGTQVTVSS”, the “polyreactivity (PSR sort gate)” value was “high polyreactivity”.
In the case of “QVQLVESGGGLVQAGGSLRLSCAASGSTFFYNAMGWYRQAPGKERELVAAITYRGGRTYYADSVKGRFTISRDIAKNTVYLQMKSLNPEDTSVYYCHAYPLYRVPDRLVVSDGNYWGQGTQVTVSS”, the “polyreactivity (PSR sort gate)” value is “low polyreactivity”.
In the case of “QVQLVESGGGLVQAGGSLRLSCAASGSTFFYYAMGLYRQAPGKERELVADITSSGGRTYYADSVKGRFTISRDNAKNTVYLQMNSLKPEDTAVYYCAARDYRQSRYEYWGQGTQVTVSS”, the “polyreactivity (PSR sort gate)” value is “high polyreactivity”.
For “QVQLVESGGGLVQAGGSLRLSCAASGSTFFYYAMGWYRQAPGKERELVAAITSSGGRTYYADSVKGRFTISRDNAKITVYLQMNSLKPEDTAVYYCAARDYRQSRYEYWGQGTQVTVSS” the value was “high polyreactivity”; for “QVQLVESGGGLVQAGGSLRLSCAASGSTFFYYDMGWYRQAPGKERELVAAITSGGSTYYADSVKGLFTISRDNAKNTVYLHMNSLKPEDTAVYYCNAESYFWDFYDYDHWGQGTQVTVSS”, “low polyreactivity”; for “QVQLVESGGGLVQAGGSLRLSCAASGSTFGAYAMGWYRQAPGKERELVAVINSDGSTNYADSVKGRFTISRDNAKHTVYLQMNSLKPEDTAVYYCAKDRTSRGGVPRMNYWGQGTQVTVSS”, “low polyreactivity”.
Take “QVQLVESGGGLVQAGGSLRLSCAASGSTFGAYTMGWYRQAPGKERELVAAISSDGSTYYADSVKGRFTISRDNAKNTVYLQMNSLKPEDTAVYYCNARYHFYGRADYSYYYLFDYWGQGTQVTVSS”: the “polyreactivity (PSR sort gate)” value was “low polyreactivity”.
As for “QVQLVESGGGLVQAGGSLRLSCAASGSTFGDYAMGWYRQAPGKERELVAAISVSGASTYYADSVKGRFTISRDNAKNTVYLQMNSLKPEDTAVYYCAATYDTIGDSWGQGTQVTVSS”, the “polyreactivity (PSR sort gate)” value was “low polyreactivity”.
Consider “QVQLVESGGGLVQAGGSLRLSCAASGSTFGEYAMGWYRQAPGKERELVAVITWRDDSTYYADSVKGRFTISRDNAKNTVYLQMNSLKPEDTAVYYCNADIYQGNAGYIEVGTFGEYDYWGQGTQVTVSS”, for which the “polyreactivity (PSR sort gate)” value is “low polyreactivity”.
With “QVQLVESGGGLVQAGGSLRLSCAASGSTFGFNAMGWYRPAPGKERELVAAINESGGDTYYADSVKGRFTISRDNAKNTVYLQMNSLKPEDTAVYYCAADEPSSVYGILVELEYWGQGTQVTVSS”, the “polyreactivity (PSR sort gate)” value is given as “high polyreactivity”.
The entry for “QVQLVESGGGLVQAGGSLRLSCAASGSTFGFNAMGWYRQAPGKERELVAAISRSGTRTYYADSVKGRFTISRDNAKNTVYLQMNSLKPEDTAVYYCAADSTLSRYDYWGQGTQVTVSS” is “high polyreactivity”; for “QVQLVESGGGLVQAGGSLRLSCAASGSTFGFNPMGWYRQAPGKERELVAAITGSGGSTYYADSVKGRFTISRDNAKNTVYLQMNSLKPEDTAVYYCARETYGDYVHYDYWGQGTQVTVSS” it is “low polyreactivity”.
Regarding “QVQLVESGGGLVQAGGSLRLSCAASGSTFGFYAMGGYRQAPGKERELVAVISSGGGTNYADSVKGRFTISRDNAKNTVYLQMNSLKPEDTAVYYCAASRFALSGGYDYWGQGTQVTVSS”, the “polyreactivity (PSR sort gate)” value is “low polyreactivity”.
For the sequence “QVQLVESGGGLVQAGGSLRLSCAASGSTFGFYAMGWFRQAPGKERELVAAISSSGSTYYADSVKGRFTISRDNAKNTVYVQINRLKPEDTAVYYCYADYWRYISSYDYWGQGTQVTVSS”, the “polyreactivity (PSR sort gate)” value was “low polyreactivity”.
In the case of “QVQLVESGGGLVQAGGSLRLSCAASGSTFGFYAMGWYRQAPGKERELVAVISSGDSTYYADSVKGRFTISRDNAKKTVYLQMNSLIPEDTAVDYCAKDALVIDGGGGYDYWGQGTQVTVSS”, the “polyreactivity (PSR sort gate)” value is reported as “low polyreactivity”.
The entry for “QVQLVESGGGLVQAGGSLRLSCAASGSTFGFYAMGWYRQAPGKERELVAVISSGGGTNYADSVKGRFTISRDNAKNTVYLQMNSLKPEDTAVYYCAASRFALSGGYDYWGQGTQVTVTS” is “low polyreactivity”; for “QVQLVESGGGLVQAGGSLRLSCAASGSTFGGKAMGWYRQAPGKDREMVAAITGSGGRTFYADSVKGRFTISRDNAKNTVYLQMNSLKQEDTAVYSCAAYSYIYSVNYWGQVTQVTVSS” it is “low polyreactivity”; for “QVQLVESGGGLVQAGGSLRLSCAASGSTFGGNAMGWYRQAPGKERELVAAISRSGTTTYYADSVKGRFTISRDNAKNTVYLQMNSLKPEDTAVYYCAADYVRSQYDYWGQGTQVTVSS” it is “high polyreactivity”.
For the sequence “QVQLVESGGGLVQAGGSLRLSCAASGSTFGGNAMGWYRQAPGKERELVAAISSSGGSTYYADSVKGRFTISRDNAKNTVYLQMNSLKPEDTAVYSCAALYHWTYDYWGQGTQVTVSS”, the “polyreactivity (PSR sort gate)” value is “low polyreactivity”.
Regarding “QVQLVESGGGLVQAGGSLRLSCAASGSTFGGNAMGWYRQAPGKERELVAAITVGGDSTYYADSVKGRFTISRDNAKNTVYLQMNSLKPEDTAVYYCAARHYWWYDYWGQGTQVTVSS”, the “polyreactivity (PSR sort gate)” value is “low polyreactivity”.
Turning to “QVQLVESGGGLVQAGGSLRLSCAASGSTFGGNAMGWYRQAPGKERELVAVISKRGGSTYYADSVKGRFTISRDYAKNTVYLQMNSLKPEDTAVYYCAATYSRYWSPTYDYWGQGTQVTVSS”, the “polyreactivity (PSR sort gate)” value is “high polyreactivity”.
Consider “QVQLVESGGGLVQAGGSLRLSCAASGSTFGGNDMGWYRQAPGKERELVAAISSGTSTNYADSVKGRFTISRDNAKNTVYLQMNSLKPEDTAVYYCAAKWHVRGRGARYRYDYDYWGQGTQVTVSS”, for which the “polyreactivity (PSR sort gate)” value is “low polyreactivity”.
Turning to “QVQLVESGGGLVQAGGSLRLSCAASGSTFGGYAMGRYRQAPGKERELVAAISQSGTRTYYADSVKGRFTISRDNAKYTVYLQMNSLKPEDTAVYYCAARRLYYHPTLYYWGQGTQVTVSS”, the “polyreactivity (PSR sort gate)” value was “high polyreactivity”.

For the origin of these results see the nanobody polyreactivity screen of Harvey et al. (2022).
